# Measurements: patent US8653023B1, “Dual beneficial effect of dopamine enhancing and neuroprotective actions of PKC delta inhibitors for treatment of Parkinson's disease” (Iowa State University Research Foundation, Inc., priority 2006, dated 2014)
# B1: PKCδ-DN: loss of function PKCδ-V5 epitope tagged mutant protein, lysine 376 to arginine, kinase inactive (protein, UniProt P28867 1-674, looked up, variant K376R)
# chain: MAPFLRISFNSYELGSLQVEDEASQPFCAVKMKEALSTERGKTLVQKKPTMYPEWKTTFDAHIYEGRVIQIVLMRAAEDPVSEVTVGVSVLAERCKKNNGKAEFWLDLQPQAKVLMCVQYFLEDGDCKQSMRSEEEAKFPTMNRRGAIKQAKIHYIKNHEFIATFFGQPTFCSVCKEFVWGLNKQGYKCRQCNAAIHKKCIDKIIGRCTGTATNSRDTIFQKERFNIDMPHRFKVYNYMSPTFCDHCGSLLWGLVKQGLKCEDCGMNVHHKCREKVANLCGINQKLLAEALNQVTQRSSRKLDTTESVGIYQGFEKKPEVSGSDILDNNGTYGKIWEGSTRCTLENFTFQKVLGKGSFGKVLLAELKGKDKYFAIRCLKKDVVLIDDDVECTMVEKRVLALAWESPFLTHLICTFQTKDHLFFVMEFLNGGDLMFHIQDKGRFELYRATFYAAEIICGLQFLHSKGIIYRDLKLDNVMLDRDGHIKIADFGMCKENIFGEGRASTFCGTPDYIAPEILQGLKYSFSVDWWSFGVLLYEMLIGQSPFHGDDEDELFESIRVDTPHYPRWITKESKDIMEKLFERDPDKRLGVTGNIRIHPFFKTINWSLLEKRKVEPPFKPKVKSPSDYSNFDPEFLNEKPQLSFSDKNLIDSMDQEAFHGFSFVNPKFEQFLDI
# modifications: full-length V5 epitope tag
# Legend:
# [1] = test system: tyrosine hydroxylase (TH); test: TH activity (DOPA levels after NSD-1015) in N27 cells; assay type: cell-based, rat; details: 2 mM NSD-1015, rottlerin 3 hr vs DMSO, PKCδ-DN vs LacZ
# Procedure: Plasmid pPKCδ^K376R-V5 encodes the loss of function PKCδ-V5 epitope tagged mutant protein; K376R refers to the mutation of the lysine residue at position 376 to arginine in the catalytic site resulting in inactivation of the kinase. Plasmid pLacZ-V5 encodes the β-galactosidase protein alone with a V5-epitope and is used as a vector control. N27 cells stably expressing PKCδ^K376R-V5 (herein referred to as PKCδ-DN cells) and LacZ alone-expressing cells (LacZ cells) were cultured as described previously (Kitazawa et al., 2005). PKCδ-DN or LacZ expressing N27 cells were identified by immunostaining of the C-terminal V5 epitope on expressed proteins and were differentiated with cAMP analogs (e.g. dibutyral cAMP) prior to experiments. PKCδ-DN and LacZ were also transiently expressed in mouse primary mesencephalic neurons using an AMAXA® Nucleofector™ kit (AMAXA GmbH, Germany). As described above, primary mesencephalic neurons were prepared from the midbrain of 16-18-day-old mice embryos. After digestion with trypsin-EDTA-HBSS, the primary neurons were homogenously resuspended with transfection buffer provided with the kit to a final concentration of 4-5×10^6 neurons/100 μl and mixed with 1 μg plasmid DNA encoding either PKCδ-DN-V5 or LacZ-V5. […] Transfection efficiency was >75% as determined by immunostaining of V5-expression. […]
# N27 cells = test: Cellular DA and DOPAC levels in N27 cells (HPLC-EC); assay type: cell-based, rat; details: N27 cells; rottlerin vs vehicle, PKCδ-DN vs LacZ
# Procedure: (§1) PC12 cells, differentiated N27 dopaminergic cells and primary mesencephalic neurons were exposed to 1-10 μM rottlerin for the duration of the experiment. DMSO (0.01%) was used as vehicle control. PKCδ-DN- and Lac Z-expressing N27 cells were only treated with 0.01% DMSO. […] Untreated or vehicle treated cells were used as control samples.
# DA and DOPAC levels in PC12, N27 cells and in brain striatal tissues were determined by high-performance liquid chromatography with electrochemical detection (HPLC-EC); samples were prepared as described previously (Kitazawa et al., 2001). The DA and DOPAC levels were measured as pg/mg protein and expressed as percent of control.
# [2] = test system: tyrosine hydroxylase (TH); test: TH phosphorylation in N27 cells (Western blot, immunofluorescence); assay type: cell-based, rat
# Procedure: as §1
# Cell and brain lysates containing equal amounts of protein were loaded in each lane and separated on a 10-12% SDS-PAGE gel as described previously (Kaul et al., 2003). After the separation, proteins were transferred to nitrocellulose membrane, and nonspecific binding sites were blocked by treating with 5% nonfat dry milk powder. The membranes were then treated with primary antibodies directed against PKCδ (rabbit polyclonal or mouse monoclonal, 1:2000 dilution), TH (rabbit polyclonal or mouse monoclonal, 1:1000), phospho TH-ser40 (rabbit polyclonal, 1:1000), phospho TH-ser31 TH (rabbit polyclonal, 1:1000), or PP2A (mouse monoclonal, 1:1000). The primary antibody treatments were followed by treatment with secondary HRP-conjugated anti-rabbit or anti-mouse IgG (1:2000) for 1 hr at RT. Secondary antibody-bound proteins were detected using Amersham's ECL chemiluminescence kit. To confirm equal protein loading, blots were reprobed with a β-actin antibody (1:5000 dilution). Western blot images were captured with a Kodak 2000 MM imaging system and data were analyzed using 1D Kodak imaging analysis software.
# Immunostaining of PKCδ, TH, Ser40 P-TH and Ser31 P-TH was performed in PC12, N27 and primary mesencephalic neurons. Cells were grown on poly-L-Lysine-coated glass cover slips. After treatment, the cells were fixed with 4% paraformaldehyde and processed for immunohistochemical staining. […] Then the coverslips containing stained cells were washed with PBS, mounted on a slide, and viewed under a Nikon inverted fluorescence microscope (Model TE-2000U); images were captured with a SPOT digital camera (Diagnostic Instruments, Sterling Heights, Mich.).
# [3] = test system: tyrosine hydroxylase (TH); test: TH-ser40 phosphorylation in primary mesencephalic neurons (immunofluorescence); assay type: cell-based, mouse; details: primary neurons, 24 hr post-transfection
# Procedure: PC12 and N27 cells were cultured as described earlier (Anantharam et al., 2002; Kaul et al., 2003). Briefly, cells were grown in RPMI 1640 medium containing 10% fetal bovine serum, 2 mM L-glutamine, 50 units of penicillin, and 50 μg/ml streptomycin. Cells were maintained in a humidified atmosphere of 5% CO2 at 37° C. N27 cells were differentiated with 2 mM dibutyryl cAMP for 3-5 days and then used for experiments described below. Primary mesencephalic neuronal cultures were prepared from the ventral mesencephalon of gestational 16-18-day-old mice embryos as described previously (Yang et al., 2004). Mesencephalic tissues were dissected and maintained in ice-cold Ca^2+-free HESS and then dissociated in HBSS solution containing trypsin-EDTA (0.25%) for 20 min at 37° C. The dissociated cells were then plated at equal density (0.5×10^6 cells) in 30-mm-diameter tissue culture wells precoated with poly-L-lysine (1 mg/ml). […]
# Plasmid pPKCδ^K376R-V5 encodes the loss of function PKCδ-V5 epitope tagged mutant protein; K376R refers to the mutation of the lysine residue at position 376 to arginine in the catalytic site resulting in inactivation of the kinase. […] Transfection efficiency was >75% as determined by immunostaining of V5-expression. […]
# PP2A = PP2A phosphatase activity in N27 cells (Serine/Threonine phosphatase assay kit); assay type: cell-based, rat; details: rottlerin vs DMSO, PKCδ-DN vs LacZ
# Procedure: To determine PP2A phosphatase activity, we used the Serine/Threonine phosphatase assay kit from Promega. Briefly, N27 cells and substantia nigral tissue from mouse brain were homogenized in lysis buffer (25 mM Tris-HCl, 10 mM β-mercaptoethanol, 2 mM EDTA, protease inhibitor) supplied with the kit. After centrifugation, the supernatants were used for the assay. PP2A activity was determined by measuring the amount of free phosphate generated in a reaction by measuring the absorbance of a molybdate:malachite green: phosphate complex at 600 nm using the Spectramax plate reader (Molecular Devices). The effective range for the detection of phosphate released in this assay is 100-4,000 pmol of phosphate.
molecule,measurement,setting,value
B1,TH activity,[1],2539±307.3 pg DOPA/10^6 cells/hr
same,DA level,N27 cells,4806±373 pg/μg protein
same,DOPAC levels,N27 cells,2783±968.31 pg/μg protein
same,increase in DA level,N27 cells,4 fold
same,increase in DOPAC levels,N27 cells,3 fold
same,THser31 phosphorylation level,[2]; N27 cells,unaltered
same,level of total TH,[2]; N27 cells,unaltered
same,"fluorescent intensity of TH-ser40 immunostaining, increase versus Lac-Z",[2]; N27 cells stably expressing PKCδ-DN,2.5 fold
same,fluorescence of TH-ser40 immunostaining versus Lac-Z expressing neurons,[3],about 2.5 times
same,reduction of PP2A activity,PP2A,56%
